The values below come from US10246721B2, “Sugar transporters” (CARNEGIE INSTITUTION OF WASHINGTON, priority 2009, dated 2019).

One assay relates to HEK293T cells. Description: Glucose transport by GLUE/SWEET coexpressed with FRET glucose sensor (cytosolic or ER) in HEK293T cells. It is filed as cell-based, human. The note with it: for glucose accumulation in cytosol (negative FRET ratio change): cytosolic FRET glucose sensor. The protocol: Individual cells were analyzed by quantitative ratio imaging of CFP and Venus emission (acquisition intervals 5 sec; Fc/D corresponds to the normalized emission intensity ratio). HEK293T/FLIPglu600μΔ13V cells were perfused with medium, followed by square pulses of increasing glucose concentrations. […] Cells coexpressing the sensor and SWEET1 accumulated glucose as evidenced by the negative FRET ratio change with an amplitude that correlates with the increasing external glucose supply (blue line). Data points are mean±SD (n>10).
The sensor FLIPglu600μΔ13V^ER was targeted to the lumen of the ER (analysis performed as under FIG. 9A, acquisition intervals 10 sec). […] Cells coexpressing the sensor and SWEET1 accumulated glucose in the ER as evidenced by the negative ratio change induced by perfusion with glucose. Data points are mean±SD (n>10).
By utilizing the above described HEK293T cell system, a novel class of Arabidopsis sugar transporters was identified that are involved in nectar production in plants and with all hallmarks of the glucose transport activity described in root tips. A screening assay was then initiated in which candidate transporter genes from Arabidopsis were coexpressed with the FRET glucose sensor in the HEK293T cell expression system.
FRET analysis. Cell culture, transfection, image acquisition and FRET analysis were performed as described previously.
To identify novel glucose transporters from the reference plant Arabidopsis, genes encoding uncharacterized polytopic membrane proteins from the plant membrane protein database Aramemnon, available on the internet at “aramemnon.botanik.uni-koeln.de”,—were screened using a mammalian expression system. Candidate genes were coexpressed with a high-sensitivity FRET glucose sensor (i.e. FLIPglu600μΔ13V) in human embryonic kidney HEK293T cells, which are characterized by low endogenous glucose uptake activity. […] To determine whether SWEET1 can also mediate efflux from the cytosol, we expressed the FRET glucose sensor FLIPglu600μΔ13V^ER in the lumen of the endoplasmic reticulum (ER; FIG. 9B). Topologically, uptake across the plasma membrane (PM) is initiated from the extracellular side of the carrier, while ‘export’ to the ER is initiated from the cytoplasmic side of the transporter (FIG. 9C). […] SWEET1 may thus function as a glucose uniporter, for which the direction of transport depends only on the glucose gradient across the membrane. […] Furthermore, the mRNAs levels of known human glucose transporters in the GLUT and SGLT families were not induced in HEK293T cells expressing SWEET1 (FIG. 12B). […] In support of a role in cellular uptake and efflux, a constitutively expressed SWEET1-YFP fusion localizes to the PM in Arabidopsis leaves (FIG. 9G). […] Other proteins, possibly related to SWEET1, may be involved in sugar transport in roots.

The next assay concerns yeast strain YSL2-1. In words: Complementation growth assay of yeast strain YSL2-1/EBY4000 lacking all 18 hexose transporter genes. Type of assay: cell-based. The conditions noted are these: for complementation of yeast hexose transport mutant on glucose: 2% glucose; for complementation on mannose: 2% mannose; for sensitivity to 2-deoxyglucose: various 2-Deoxy-glucose levels; for complementation on fructose: 2% fructose. As to the method:
Cells expressing yeast homolog, HXTS, or mammalian homolog, GLUT1, were used as controls. Os8N3 and RAG1AP1 were homologs from rice and mammalian. The yeast cells were grown in SD-Ura liquid medium with 2% maltose to early log phase and 5 m of serious dilutions were spotted on the media containing YPM or SD-URA containing 2% of maltose, fructose, or mannose. […]
Cells expressing yeast homolog, HXT5, or mammalian homolog, GLUT1, were used as controls. Os8N3 and RAG1AP1 were homologs from rice and mammalian. The yeast cells were grown in SD-Ura liquid medium with 2% maltose to early log phase and 5 m of serious dilutions were spotted on the media containing YPM or SD-URA containing 2% glucose.
Cells expressing yeast homolog, HXT5, or mammalian homolog, GLUT1, were used as controls. Os8N3 and RAG1AP1 were homologs from rice and mammalian. The yeast cells were grown in SD-Ura liquid medium with 2% maltose to early log phase and 5 m of serious dilutions were spotted on the media containing YPM or SD-URA containing various 2-Deoxy-glucose levels.
A modified version of the yeast strain EBY4000 (hxt1 through −17Δ::loxP gal2Δ::loxP stl1Δ::loxP agt1Δ::loxP ydl247wΔ::loxP yjr160cΔ::loxP) carrying a cytosolic invertase (YSL2-1) was transformed with SWEETs and HXTS and grown on SD (synthetic deficient) medium supplemented with 2% maltose and required auxotrophic markers. For complementation growth assays, cells were grown overnight in liquid minimum medium to OD600˜0.6 and then diluted to OD600˜0.2 using water. Serial dilutions (1×, 5×, 25×, and 125×) were plated on SD media containing either 2% maltose (as control) or 2% glucose and the relevant auxotrophic markers. Growth was documented by scanning (CanoScan, Canon) the plates after 2-5 days at 30° C.

For the molecule “GLUE12: Arabidopsis GLUE/SWEET sugar transporter protein”, the “glucose accumulation in cytosol (negative FRET ratio change)” value in the assay with HEK293T cells was “function as glucose transporters with different activities”.

B1: GLUE8: Arabidopsis sugar transporter protein expressed in the tapetum, paralog of SWEET1 (protein, UniProt Q8LFH5 1-239, looked up)
Bidirectional sugar …: MVDAKQVRFIIGVIGNVISFGLFAAPAKTFWRIFKKKSVEEFSYVPYVATVMNCMLWVFYGLPVVHKDSILVSTINGVGLVIELFYVGVYLMYCGHKKNHRRNILGFLALEVILVVAIILITLFALKGDFVKQTFVGVICDVFNIAMYGAPSLAIIKVVKTKSVEYMPFLLSLVCFVNAGIWTTYSLIFKIDYYVLASNGIGTFLALSQLIVYFMYYKSTPKEKTVKPSEVEISATERV
Regarding B1, the “glucose efflux from cytosol into the ER” value with HEK293T cells (ER-targeted sensor FLIPglu600μΔ13V ER) was “‘efflux’ glucose from the cytosol into the ER”. Moreover, the “glucose accumulation in cytosol (negative FRET ratio change)” value in the assay on HEK293T cells was “function as glucose transporters with different activities”. Besides, the “glucose accumulation in cytosol (negative FRET ratio change)” value in the assay on HEK293T cells (listed as SWEET8) is listed as “also functions as a uniporter”. For the same molecule, in the assay on yeast strain YSL2-1, the “complementation of yeast hexose transport mutant on glucose” value (from here on “complementation … on glucose”) is “transport glucose”, the complementation on mannose result is “transport mannose” and the “sensitivity to 2-deoxyglucose” value is recorded as “transport 2-deoxyglucose”. The “complementation … on glucose” value in the assay with yeast strain YSL2-1 (listed as SWEET8/RPG1) was “complements the yeast glucose transport mutant”.

B2: GLUE16: Arabidopsis GLUE/SWEET sugar transporter protein (protein, UniProt Q9LUR4 1-230, looked up)
Bidirectional sugar …: MADLSFYVGVIGNVISVLVFLSPVETFWRIVQRRSTEEYECFPYICTLMSSSLWTYYGIVTPGEYLVSTVNGFGALAESIYVLIFLFFVPKSRFLKTVVVVLALNVCFPVIAIAGTRTLFGDANSRSSSMGFICATLNIIMYGSPLSAIKTVVTTRSVQFMPFWLSFFLFLNGAIWGVYALLLHDMFLLVPNGMGFFLGIMQLLIYAYYRNAEPIVEDEEGLIPNQPLLA
As to B2, the “sensitivity to 2-deoxyglucose” value with yeast strain YSL2-1 was “transport 2-deoxyglucose”.

B3: GLUE3: Arabidopsis GLUE/SWEET sugar transporter protein (protein, UniProt Q6NQN5 1-263, looked up)
Bidirectional sugar …: MGDKLRLSIGILGNGASLLLYTAPIVTFSRVFKKKSTEEFSCFPYVMTLFNCLIYTWYGLPIVSHLWENLPLVTINGVGILLESIFIFIYFYYASPKEKIKVGVTFVPVIVGFGLTTAISALVFDDHRHRKSFVGSVGLVASISMYGSPLVVMKKVIETRSVEYMPFYLSFFSFLASSLWLAYGLLSHDLFLASPNMVATPLGILQLILYFKYKNKKDLAPTTMVITKRNDHDDKNKATLEFVVDVDRNSDTNEKNSNNASSI
As for B3, the “sensitivity to 2-deoxyglucose” value with yeast strain YSL2-1 is recorded as “transport 2-deoxyglucose”.

B4: GLUE13: Arabidopsis GLUE/SWEET sugar transporter protein (protein, UniProt Q9FGQ2 1-294, looked up)
Bidirectional sugar …: MALTNNLWAFVFGILGNIISFVVFLAPVPTFVRICKKKSTEGFQSLPYVSALFSAMLWIYYAMQKDGTAFLLITINAFGCVIETIYIVLFVSYANKKTRISTLKVLGLLNFLGFAAIVLVCELLTKGSTREKVLGGICVGFSVSVFAAPLSIMRVVVRTRSVEFMPFSLSLFLTISAVTWLFYGLAIKDFYVALPNVLGAFLGAVQMILYIIFKYYKTPVAQKTDKSKDVSDHSIDIAKLTTVIPGAVLDSAVHQPPALHNVPETKIQLTEVKSQNMTDPKDQINKDVQKQSQV
As for B4, in the assay with HEK293T cells, the “glucose accumulation in cytosol (negative FRET ratio change)” value is on record as “function as glucose transporters with different activities”.

B5: GLUE5: Arabidopsis GLUE/SWEET sugar transporter protein (protein, UniProt Q9FM10 1-240, looked up)
Bidirectional sugar …: MTDPHTARTIVGIVGNVISFGLFCAPIPTMVKIWKMKSVSEFKPDPYVATVLNCMMWTFYGLPFVQPDSLLVITINGTGLFMELVYVTIFFVFATSPVRRKITIAMVIEVIFMAVVIFCTMYFLHTTKQRSMLIGILCIVFNVIMYAAPLTVMKLVIKTKSVKYMPFFLSLANFMNGVVWVIYACLKFDPYILIPNGLGSLSGIIQLIIYITYYKTTNWNDDDEDKEKRYSNAGIELGQA
B5: in the assay on yeast strain YSL2-1, the “complementation … on glucose” value is given as “transport glucose”, the complementation on mannose result is listed as “transport mannose” and the “sensitivity to 2-deoxyglucose” value is reported as “transport 2-deoxyglucose”.

B6: GLUE17: Arabidopsis GLUE/SWEET sugar transporter protein (protein, UniProt Q84WN3 1-241, looked up)
Bidirectional sugar …: MAEASFYIGVIGNVISVLVFLSPVETFWKIVKRRSTEEYKSLPYICTLLGSSLWTYYGIVTPGEYLVSTVNGFGALVETIYVSLFLFYAPRHLKLKTVDVDAMLNVFFPIAAIVATRSAFEDEKMRSQSIGFISAGLNIIMYGSPLSAMKTVVTTKSVKYMPFWLSFFLFLNGAIWAVYALLQHDVFLLVPNGVGFVFGTMQLILYGIYRNAKPVGLSNGLSEIAQDEEEGLTSRVEPLLS
As to B6, the “sensitivity to 2-deoxyglucose” value in the assay with yeast strain YSL2-1 is listed as “transport 2-deoxyglucose”.

B7: GLUE14: Arabidopsis GLUE/SWEET sugar transporter protein (protein, UniProt Q9SW25 1-281, looked up)
Bidirectional sugar …: MVLTHNVLAVTFGVLGNIISFIVFLAPVPTFVRICKKKSIEGFESLPYVSALFSAMLWIYYALQKDGAGFLLITINAVGCFIETIYIILFITYANKKARISTLKVLGLLNFLGFAAIILVCELLTKGSNREKVLGGICVGFSVCVFAAPLSIMRVVIRTKSVEFMPFSLSLFLTISAITWLFYGLAIKDFYVALPNILGAFLGAVQMILYVIFKYYKTPLVVDETEKPKTVSDHSINMVKLSSTPASGDLTVQPQTNPDVSHPIKTHGGDLEDQMDKKMPN
As for B7, the “sensitivity to 2-deoxyglucose” value in the assay on yeast strain YSL2-1 is on record as “transport 2-deoxyglucose”.

B8: GLUE4: Arabidopsis GLUE/SWEET sugar transporter protein (protein, UniProt Q944M5 1-251, looked up)
Bidirectional sugar …: MVNATVARNIAGICGNVISLFLFLSPIPTFITIYKKKKVEEYKADPYLATVLNCALWVFYGLPMVQPDSLLVITINGTGLAIELVYLAIFFFFSPTSRKVKVGLWLIGEMVFVGIVATCTLLLFHTHNQRSSFVGIFCVIFVSLMYIAPLTIMSKVIKTKSVKYMPFSLSLANFLNGVVWVIYALIKFDLFILIGNGLGTVSGAVQLILYACYYKTTPKDDEDEEDEENLSKVNSQLQLSGNSGQAKRVSA
B8: in the assay on yeast strain YSL2-1, the complementation on fructose result is recorded as “transport fructose”; the “complementation … on glucose” value is reported as “transport glucose”; the complementation on mannose result is “transport fructose and mannose”; the “sensitivity to 2-deoxyglucose” value is “transport 2-deoxyglucose”.

B9: GLUE7: Arabidopsis GLUE/SWEET sugar transporter protein (protein, UniProt Q8LBF7 1-258, looked up)
Bidirectional sugar …: MVFAHLNLLRKIVGIIGNFIALCLFLSPTPTFVRIVKKKSVEEYSPIPYLATLINCLVWVLYGLPTVHPDSTLVITINGTGILIEIVFLTIFFVYCGRQKQRLIISAVIAAETAFIAILAVLVLTLQHTTEKRTMSVGIVCCVFNVMMYASPLSVMKMVIKTKSVEFMPFWLSVAGFLNAGVWTIYALMPFDPFMAIPNGIGCLFGLAQLILYGAYYKSTKRIMAERENQPGYVGLSSAIARTGSEKTANTNQEPNNV
With B9, in the assay on yeast strain YSL2-1, the complementation on fructose result was “transport fructose”; the “complementation … on glucose” value is recorded as “transport glucose”; the complementation on mannose entry was “transport fructose and mannose”; the “sensitivity to 2-deoxyglucose” value is on record as “transport 2-deoxyglucose”.
